Assay results taken from US20050084890A1, “High-throughput screening assay for inhibitors of replication protein A” (priority 2003, published 2005).

Experiments:
[1] = molecular target: T1, RPA (Homo sapiens, UniProt P27694); experiment: Homogeneous high-throughput fluorescence assay of RPA's DNA binding activity (96-well); details: blind experiment; 5, 25 or 50 pmol competitor in 3 of 96 wells
T1 construct: made in house; host or cells: Escherichia coli
Description: Specifically, the percentage inhibition is calculated by taking the difference between the fluorescence values of reactions containing DNA and RPA and reactions containing DNA, RPA, and the test compound and dividing by the difference between the fluorescence values of reactions with DNA and RPA and the fluorescence of the DNA alone. This value is then multiplied by 100 to give percentage inhibition. The measurement is typically reported as fluorescence above the background fluorescence of the reporter alone. In one aspect the of the assay the DNA is single stranded DNA.
In accordance with one exemplary embodiment of the present invention, a homogeneous high-throughput screening assay is provided that employs a novel fluorescent reporter for measuring RPA's DNA binding activity. […] The fluorescence is then quantified in a 96-well plate fluorescence spectrophotometer. […]
RPA (10 pmol) was added to each well of a 96-well plate in a volume of 100 μl. […] Plates were read in a fluorometer. Fluorescence emission was read at 518 nm following excitation at […]. Fluorescence was read using a 96-well plate reader with a 2.5 nm excitation slit width and a 5 nm emission slit width. […] The data is presented as fluorescence above the background fluorescence of the reporter alone unless indicated otherwise. […]

[2] = molecular target: T2, Replication Protein A (RPA) (Homo sapiens, UniProt P27694;P15927;P35244 P27694:1-616,P15927:1-270,P35244:1-121); experiment: competition; 5, 25 or 50 pmol unlabeled DNA inhibits RPA binding to the fluorescein-labeled reporter; details: tags: expressed in E. coli from vector pdT11 (Marc Wold)
Description: RPA (10 pmol) was added to each well of a 96-well plate in a volume of 100 μl. Individual compounds were added to each well followed by the fluorescent reporter. The final reaction volume was 200 μl. Plates were read in a fluorometer. Fluorescence emission was read at 518 nm following excitation at […]. Fluorescence was read using a 96-well plate reader with a 2.5 nm excitation slit width and a 5 nm emission slit width. To calculate the percentage inhibition, the difference between the fluorescence values of reactions containing DNA and RPA and […] the test compound was divided by the difference between the fluorescence values of reactions with DNA and RPA and the fluorescence of the DNA alone. This value was then multiplied by 100 to give percentage inhibition. The data is presented as fluorescence above the background fluorescence of the reporter alone unless indicated otherwise.
To determine the effectiveness of this assay, a blind experiment was performed in which 3 of the 96 wells were added to 5, 25, or 50 pmol DNA substrate that has the exact sequence of the fluorescent DNA reporter without the fluorescein label. This DNA would compete for RPA, therefore acting as an inhibitor. […] The effect of DMSO on reaction sensitivity and reproducibility was assessed and the results indicated no difference in assay sensitivity.

[3] = molecular target: T2, Replication Protein A (RPA); experiment: fluorescence enhancement (ex 498 nm, em 518 nm); hyperbolic curve saturating at 1:1 RPA:DNA; details: tags: expressed in E. coli from vector pdT11 (Marc Wold); label: 5' fluorescein
Description: In an effort to investigate the effect small molecules have on the interaction of RPA with DNA, an HTS assay was developed that relies on the use of a fluorescein-labeled ssDNA substrate. […] In an effort to optimize the detection, fluorescent excitation and emission wavelengths were tested along with varying slit widths and voltages. The optimal parameters were excitation at 498 nm and emission at […]. The optimal excitation and emission slit widths and voltage were 2.5 and 5 nm and 800 V, respectively.
In an attempt to test a large number of compounds simultaneously, the assay was converted to a 96-well plate format. In this assay, the fluorescein-labeled DNA was diluted into assay buffer and 100 μl were dispensed into each well. The fluorescence of each well was then read. Each well then received 100 μl RPA and the fluorescence of each well was read again. Percentage increase of fluorescence was then calculated from these two readings and is represented in FIG. 1.

[4] = molecular target: T2, Replication Protein A (RPA); experiment: FP; polarization r max 0.23 without compound; saturation at about 15 pmol RPA in control as printed; details: tags: expressed in E. coli from vector pdT11 (Marc Wold); label: fluorescein
Description: To more precisely determine if the method of inhibition was via an interaction with DNA or RPA, fluorescence polarization experiments were conducted. Fluorescence polarization is a measure of the rate at which an object tumbles or rotates in three-dimensional space. In this experiment, a fluorescein-labeled dT₃₀ substrate DNA is employed which results in a baseline polarization that is increased upon RPA binding; to the DNA and slowing its rotation. Using this method, it can be determined if the interaction of the compound was with DNA or RPA by constructing binding isotherms varying RPA at a fixed concentration of DNA with and without the addition of specific compounds. Using fluorescence polarization, compounds that exert their inhibitory effect through an interaction with the DNA were capable of being identified. Fluorescence polarization was performed by titrating RPA into a reaction containing fluorescein-labeled dT₃₀ DNA in the presence and absence of 20 μM compound (FIG. 5). […] This conclusion is further supported by experiments performed measuring the effect of compound 1:51 on polarization of the DNA in the absence of RPA. In these reactions, the r value of the DNA plus compound was slightly greater than the r value of the DNA without compound.

T2 sequence (P27694 whole entry, chain 1 of 3): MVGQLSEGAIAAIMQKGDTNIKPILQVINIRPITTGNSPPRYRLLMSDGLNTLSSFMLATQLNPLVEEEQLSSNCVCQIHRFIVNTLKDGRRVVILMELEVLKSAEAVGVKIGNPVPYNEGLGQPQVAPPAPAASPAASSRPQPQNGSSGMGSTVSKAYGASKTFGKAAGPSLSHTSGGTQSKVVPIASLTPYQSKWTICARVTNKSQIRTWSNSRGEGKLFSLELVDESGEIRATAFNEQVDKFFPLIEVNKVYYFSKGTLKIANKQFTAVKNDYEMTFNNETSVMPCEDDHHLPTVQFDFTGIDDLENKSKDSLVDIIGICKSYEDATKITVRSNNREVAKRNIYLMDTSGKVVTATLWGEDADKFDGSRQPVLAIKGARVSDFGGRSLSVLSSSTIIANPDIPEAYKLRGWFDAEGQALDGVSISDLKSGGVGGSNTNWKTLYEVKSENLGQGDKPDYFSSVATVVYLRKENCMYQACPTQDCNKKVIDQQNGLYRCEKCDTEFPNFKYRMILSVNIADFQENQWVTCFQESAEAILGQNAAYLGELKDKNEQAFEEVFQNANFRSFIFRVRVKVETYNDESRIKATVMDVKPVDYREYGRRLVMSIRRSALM
T2 sequence (P15927 whole entry, chain 2 of 3): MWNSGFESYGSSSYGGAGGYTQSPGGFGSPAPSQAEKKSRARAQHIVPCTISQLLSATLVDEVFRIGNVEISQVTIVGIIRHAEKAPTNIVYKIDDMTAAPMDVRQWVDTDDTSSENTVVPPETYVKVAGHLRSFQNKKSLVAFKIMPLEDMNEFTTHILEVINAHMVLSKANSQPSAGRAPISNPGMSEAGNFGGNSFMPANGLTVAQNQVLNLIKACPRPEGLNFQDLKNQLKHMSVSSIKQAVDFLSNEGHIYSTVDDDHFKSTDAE
T2 sequence (P35244 whole entry, chain 3 of 3): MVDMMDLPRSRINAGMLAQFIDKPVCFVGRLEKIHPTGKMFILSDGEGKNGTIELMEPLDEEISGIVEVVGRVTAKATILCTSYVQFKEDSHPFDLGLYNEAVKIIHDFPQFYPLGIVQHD
T1 sequence (P27694 whole entry): as the sequence (P27694 whole entry, chain 1 of 3) above
T1 sequence (P15927 whole entry partner): as the sequence (P15927 whole entry, chain 2 of 3) above
T1 sequence (P35244 whole entry partner): as the sequence (P35244 whole entry, chain 3 of 3) above

DNA substrate that has the exact sequence of the fluorescent DNA reporter without the fluorescein label: unlabeled 30 base ssDNA of SEQ ID NO: 1 sequence, competes for RPA, acting as an inhibitor (DNA GGGGAAGTAAGGACGCGGAAAGGATAGGGG; DNA, backbone not given here; unlabeled competitor ssDNA)
inhibition of RPA binding to the fluorescein-labeled DNA [1]: significant inhibition

GGGGAAGTAAGGACGCGGAAAGGATAGGGG (ssDNA) [30-base unlabeled competitor DNA]
binding result [2]: binds

GGGGAAGTAAGGACGCGGAAAGGATAGGGG (ssDNA) [30-base purine-rich reporter DNA]
binding result [3]: binds

TTTTTTTTTTTTTTTTTTTTTTTTTTTTTT (ssDNA, [NONE]) [dT30]
binding result [4]: binds
